This is an account of results in paper doi:10.1101/2023.10.09.561567 (bioRxiv, 2023).

Experiment [1] addresses IL-33 released from CMT-64 cells (mouse (endogenous in CMT-64)) (UniProt Q8BVZ5). The experiment can be described thus: ELISA. For orientation: In an ELISA, binding on a coated surface is turned into a signal by an enzyme label.
The target of experiment [2] is HpARI1 (Heligmosomoides polygyrus bakeri). The experiment can be described thus: SPR.
Experiment [3] has as its target HpARI2 (Heligmosomoides polygyrus bakeri). Description: SPR. For orientation: SPR reads the build-up and loss of mass on a sensor chip optically.
Experiment [4] concerns the target HpARI3 (Heligmosomoides polygyrus bakeri). Description: SPR.
Experiment [5] deals with T1, IL-33 released from CMT-64 cells (mouse (endogenous in CMT-64), UniProt Q8BVZ5 1-266).
T1 sequence (looked up): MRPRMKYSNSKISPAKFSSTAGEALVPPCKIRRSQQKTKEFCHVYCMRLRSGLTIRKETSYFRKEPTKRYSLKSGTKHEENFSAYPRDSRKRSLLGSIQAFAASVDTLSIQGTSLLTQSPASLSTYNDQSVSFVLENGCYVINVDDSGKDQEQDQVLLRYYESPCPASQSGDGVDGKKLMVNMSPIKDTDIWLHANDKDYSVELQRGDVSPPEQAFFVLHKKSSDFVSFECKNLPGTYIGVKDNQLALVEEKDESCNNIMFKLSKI
The experiment can be described thus: ELISA.

In the case of HpARI1 (natural protein), the IC50 – broadly, the concentration that gives 50% inhibition – in experiment [1] worked out at 0.8 nM.
In the case of HpARI2 (natural protein), the IC50 in experiment [1] is 0.8 nM.
For “mouse IL-33 (purified) (from UniProt Q8BVZ5 1-266) (ligand)”, the Kd – broadly, the equilibrium constant for the complex coming apart – was determined as 0.04 nM in experiment [2], 0.04 nM in experiment [3] and 0.4 nM in experiment [4].

B1: HpARI3 (natural protein, Heligmosomoides polygyrus bakeri, UniProt A0A183GRJ4 1-248, looked up)
chain: SLGCKFTDVEKDKGYTGMLVGGKRRESAANGQKVELVCGRGNHNYTCKSGILTEESYRQGRCGCEGILQMLLDKPKDSPMYDSVTYDPTPNTPTTVGKDGIWNGVDYRNGSTVRPYCDTGPIINGSPKAVCVSGKWVPKLGDCPKMCSISSLKENGKFLNVTATTTGDELNPRPREQTLIPIVRKVDKDKVQHGVKVVALCKAKYSTTAAENVQKFECDNGKWKPKPVPCS
modifications: chemically biotinylated with EZ-Link Sulfo-NHS-Biotin (for SPR only)
For the molecule B1, the IC50 in experiment [5] was ~6 nM.
